Assay results reported in PMC11783756, “Sorbitol induces flavonoid accumulation as a secondary signal via the nanoencapsulated SPc/lncRNA809-MmNAC17 module against Alternaria alternata in Malus micromalus”.

T1: MmNAC17 (Malus micromalus, UniProt D9ZJ94 1-336)
T1 sequence: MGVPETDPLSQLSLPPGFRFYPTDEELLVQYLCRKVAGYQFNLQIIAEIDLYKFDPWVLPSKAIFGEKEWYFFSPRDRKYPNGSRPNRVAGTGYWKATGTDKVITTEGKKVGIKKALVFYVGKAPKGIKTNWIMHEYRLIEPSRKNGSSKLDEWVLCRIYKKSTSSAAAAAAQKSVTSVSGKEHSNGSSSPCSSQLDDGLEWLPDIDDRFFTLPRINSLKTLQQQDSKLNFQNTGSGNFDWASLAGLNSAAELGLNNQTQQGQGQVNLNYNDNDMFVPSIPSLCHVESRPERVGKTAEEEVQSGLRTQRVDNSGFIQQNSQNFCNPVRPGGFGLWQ

B1: proMmLAR probe (dsDNA)
DNA 1: GAAGATATCACACGTAGCCAAAAGCG
DNA 2: CGCTTTTGGCTACGTGTGATATCTTC
B2: proMmF3H probe (dsDNA)
DNA 1: AGGTGAAGATCACGTGGCGCAATTTC
DNA 2: GAAATTGCGCCACGTGATCTTCACCT

Target: T1, MmNAC17
Test: EMSA; binding disrupted by unlabeled competitor (100x); Chemiluminescence EMSA kit (Beyotime); binding buffer, salt, pH and temperature not stated
Settings: protein: recombinant; tags: His (pET-30a, Ni-NTA purified); chain copies: 2; blunt

Row | Binder | binding result
1 | B1 | binds
2 | B2 | binds
